The values below come from PMC4459029, “Effects of receptor tyrosine kinase inhibitors on VEGF165a- and VEGF165b-stimulated gene transcription in HEK-293 cells expressing human VEGFR2” (British Journal of Pharmacology, 2015).

The subject of experiment [1] is basal NFAT-luciferase activity. As to the kind of experiment: basal NFAT-luciferase production in VEGFR2 NFAT cells. The experiment is classed as cell-based, human. Particulars: no VEGF; P < 0.05 one way ANOVA. The text has this:
HEK-293 cells expressing the human VEGFR2 and an NFAT reporter gene were provided by Promega Corporation. The NFAT reporter gene contained an NFAT response element linked via a minimal promoter to the firefly luciferase gene luc2P containing a human sequence enriched in proline (P), glutamic acid (E), serine (S) and threonine (T) protein destabilization sequence (Voon et al., [2005]). VEGFR2 NFAT cells were maintained in DMEM media supplemented with 10% FCS and 0.5% G418 in a humidified 5% CO2/95% air atmosphere at 37°C.
VEGFR2 NFAT cells were seeded in a T75 flask at 5 × 10^6 cells per flask using DMEM +10%FCS and incubated at 37°C in a 5% CO2/95% air atmosphere for 3 days until the cells were 100% confluent. On the fourth day, cells were washed with PBS and detached using 3 mL Versene® (ETDA 0.02% in PBS). Once cells had detached, 6 mL of DMEM +0.1%BSA was added and the cells were counted using a haemocytometer. […] After the 5 h incubation, 100 μL ONE-Glo Luciferase Assay reagent was added to each well and luminescence was measured according to the manufacturer's instructions on a Topcount platereader (Perkin Elmer, Llantrisant, UK).

For experiment [2], the target named is T1, human VEGFR2 (Homo sapiens, UniProt P35968).
T1 construct: host or cells: HEK-293
T1 sequence (P35968 20-1356): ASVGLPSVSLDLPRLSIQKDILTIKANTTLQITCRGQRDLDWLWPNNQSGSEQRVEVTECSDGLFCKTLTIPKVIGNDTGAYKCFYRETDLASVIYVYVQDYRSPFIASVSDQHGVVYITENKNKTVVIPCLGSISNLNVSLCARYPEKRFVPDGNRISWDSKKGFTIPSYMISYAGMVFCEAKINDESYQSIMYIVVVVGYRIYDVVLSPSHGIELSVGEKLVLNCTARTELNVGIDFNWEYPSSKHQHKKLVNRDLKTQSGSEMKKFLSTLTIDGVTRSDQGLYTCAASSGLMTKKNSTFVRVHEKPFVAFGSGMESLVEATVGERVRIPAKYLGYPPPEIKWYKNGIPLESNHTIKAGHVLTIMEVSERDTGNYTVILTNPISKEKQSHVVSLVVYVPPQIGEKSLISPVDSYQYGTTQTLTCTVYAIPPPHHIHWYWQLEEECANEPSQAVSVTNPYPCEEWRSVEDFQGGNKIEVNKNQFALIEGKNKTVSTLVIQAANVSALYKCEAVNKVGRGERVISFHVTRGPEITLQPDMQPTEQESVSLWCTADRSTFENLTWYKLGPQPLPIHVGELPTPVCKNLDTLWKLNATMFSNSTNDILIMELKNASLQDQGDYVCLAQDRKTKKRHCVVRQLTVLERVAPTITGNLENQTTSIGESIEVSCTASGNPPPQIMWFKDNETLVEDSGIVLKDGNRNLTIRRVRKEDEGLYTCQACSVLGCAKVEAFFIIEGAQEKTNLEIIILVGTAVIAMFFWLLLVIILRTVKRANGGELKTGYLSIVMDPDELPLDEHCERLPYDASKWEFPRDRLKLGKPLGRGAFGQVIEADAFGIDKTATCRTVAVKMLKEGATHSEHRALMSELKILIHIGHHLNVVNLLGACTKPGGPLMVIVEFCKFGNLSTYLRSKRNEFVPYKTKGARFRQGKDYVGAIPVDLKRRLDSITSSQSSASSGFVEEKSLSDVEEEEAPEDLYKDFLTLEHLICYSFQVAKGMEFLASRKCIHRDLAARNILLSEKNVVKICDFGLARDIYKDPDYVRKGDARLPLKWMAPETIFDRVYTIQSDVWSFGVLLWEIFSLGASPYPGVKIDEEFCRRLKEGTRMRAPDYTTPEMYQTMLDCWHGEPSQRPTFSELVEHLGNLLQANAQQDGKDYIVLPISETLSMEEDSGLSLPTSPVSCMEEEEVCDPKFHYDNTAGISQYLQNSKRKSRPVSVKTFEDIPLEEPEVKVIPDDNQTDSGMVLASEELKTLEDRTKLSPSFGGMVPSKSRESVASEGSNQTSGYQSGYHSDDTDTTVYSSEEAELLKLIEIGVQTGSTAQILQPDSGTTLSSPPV
As to the kind of experiment: VEGFR2-stimulated NFAT-luciferase reporter gene activity in HEK-293 cells. The experiment is classed as cell-based. As for the experimental part: HEK-293 cells expressing the human VEGFR2 and an NFAT reporter gene were provided by Promega Corporation.
On the fourth day, cells were washed with PBS and detached using 3 mL Versene® (ETDA 0.02% in PBS). Once cells had detached, 6 mL of DMEM +0.1%BSA was added and the cells were counted using a haemocytometer. Cells were centrifuged at 200× g for 5 min, resuspended in DMEM +0.1%BSA and seeded at a density of 4 × 10^4 cells per well in 80 μL DMEM +0.1%BSA in white-sided, clear flat-bottomed 96-well plates (Greiner, Stonehouse, UK), which had been coated with 0.01 mg·mL^−1 poly-D-lysine in PBS for 30 min and washed with DMEM. […] After the 5 h incubation, 100 μL ONE-Glo Luciferase Assay reagent was added to each well and luminescence was measured according to the manufacturer's instructions on a Topcount platereader (Perkin Elmer, Llantrisant, UK).
All data were fitted using non-linear regression in Prism 6 (GraphPad Software, San Diego, CA, USA).
A comparison of the extra sum of squares that resulted from the analysis with separate EC50 or Emax values (over that with one of the parameters shared) using the F-test (Prism 6) then allowed for statistical analysis of the difference between EC50 or Emax values. […]
(In general: In a reporter assay the amount or activity of a reporter protein is the signal.)

Values joined by “and” are separate entries in the source; they are usually repeats but may differ in a detail not shown here. Equal entries are not always repeated.

For the molecule `COc1cc2c(Oc3ccc4[nH]c(C)cc4c3F)ncnc2cc1OCCCN1CCCC1` [Cediranib], the “concentration giving significant inhibition of basal NFAT-luciferase response” value in experiment [1] was “above 10 nM”.

B1: VEGF165b: VEGF-A exon 8 splice variant, lower-efficacy partial agonist at VEGFR2, from R&D systems (protein)
chain: APMAEGGGQNHHEVVKFMDVYQRSYCHPIETLVDIFQEYPDEIEYIFKPSCVPLMRCGGCCNDEGLECVPTEESNITMQIMRIKPHQGQHIGEMSFLQHNKCECRPKKDRARQENPCGPCSERRKHLFVQDPQTCKCSCKNTDSRCKARQLELNERTCRSLTRKD
modifications: disulfide-linked homodimer; natural exon 8b splice isoform (VEGF165b); limits are the mature chain after removal of the 26-residue signal pep
With B1, the “−Log EC50” value in experiment [2] (agonist-stimulated NFAT-luciferase response, 5 h incubation) amounted to 9.21 ± 0.08. The “pKA at VEGFR2 (operational model)” value in experiment [2] (partial agonist fit) was 8.83 and 8.8.
